Laboratory results reported in patent US8106168B2, “Metalloproteinase binding proteins” (Dyax Corp., priority 2005, dated 2012).

B1: M0037-C03: Fab that binds human MMP-14; DNA LV SEQ ID NO: 40, HV SEQ ID NO: 41 (antibody, V domains shown)
VL: QDIQMTQSPSSVSASVGDRVTITCRASQGISSWLAWYQQKPGKAPKLLIYAASSLQSGVPSRFSGSGSGTDFTLTISSLQPEDFATYYCQQANSFPFVTFGQGTKLEIK
VH: EVQLLESGGGLVQPGGSLRLSCAASGFTFSMYLMIWVRQAPGKGLEWVSVISSSGGQTKYADSVKGRFTISRDNSKNTLYLQMNSLRAEDTAVYYCARTDLTGYSAGAFDIWGQGTMVTVSS
modifications: Synthetically generated oligonucleotide
B2: M0037-H09: Fab that binds human MMP-14; DNA LV SEQ ID NO: 46, HV SEQ ID NO: 47 (antibody, V domains shown)
VL: QDIQMTQSPLSLPVTPGEPASISCRSSQSLLHGNGNNYLDWYLQKPGQSPQLLIYLGSNRASGVPDRFSGSGSGTDFTLKISSVEAEDVGVYYCMQGLQTPHTFGQGTQLEIK
VH: EVQLLESGGGLVQPGGSLRLSCAASGFTFSRYWMDWVRQAPGKGLEWVSSIRSSGGMTGYADSVKGRFTISRDNSKNTLYLQMNSLRAEDTAVYYCARHRTGRGAFDIWGQGTTVTVSS
modifications: Synthetically generated oligonucleotide
B3: M0038-C05: Fab that binds human MMP-14; DNA LV SEQ ID NO: 50, HV SEQ ID NO: 51 (antibody, V domains shown)
VL: QDIQMTQSPSSLSASVGDRVTITCRASQSISSYLNWYQQKPGKAPKLLIYAASSLQSGVPSRFSGSGSGTDFTLTISRLEPEDFAVYYCQQYGSSPTFGQGTKVEIK
VH: EVQLLESGGGLVQPGGSLRLSCAASGFTFSSYIMVWVRQAPGKGLEWVSVIYPSGGPTYYADSVKGRFTISRDNSKNTLYLQMNSLRAEDTAVYYCARDPRLERFYFDYWGQGTLVTVSS
modifications: Synthetically generated oligonucleotide
B4: M0037-A08: Fab that binds human MMP-14; DNA LV SEQ ID NO: 36, HV SEQ ID NO: 37 (antibody, V domains shown)
VL: QDIQMTQSPSSVSASVGDRVTITCRASQGVSSYLAWYQQKPGKAPKLLIYGASTLQNGVPSRFSGSGSGTDFTLTISSLQPEDFATYHCQQVHSFPPTFGQGTKVEIK
VH: EVQLLESGGGLVQPGGSLRLSCAASGFTFSHYMMMWVRQAPGKGLEWVSGISSSGGRTGYADSVKGRFTISRDNSKNTLYLQMNSLRAEDTAVYYCASFGNSGSYSWRAFDIWGQGTTVTVSS
modifications: Synthetically generated oligonucleotide
B5: M0038-B06: Fab that binds human MMP-14; DNA LV SEQ ID NO: 48, HV SEQ ID NO: 49 (antibody, V domains shown)
VL: QDIQMTQSPSSLSASVGDRVTITCRASQSISSYLNWYQQKPGKAPKLLIYAASSLQSGVPSRFRGSGSGTDFSLTISSLQPEDFATYYCQQTYSGLPTFGGGTVVEIK
VH: EVQLLESGGGLVQPGGSLRLSCAASGFTFSSYVMGWVRQAPGKGLEWVSVISPSGGWTTYADSVKGRFTISRDNSKNTLYLQMNSLRAEDTATYYCASRGVVTNLDYWGQGTLVTVSS
modifications: Synthetically generated oligonucleotide
B6: M0030-A04: Fab that binds human MMP-14; DNA LV SEQ ID NO: 6, HV SEQ ID NO: 7 (antibody, V domains shown)
VH: EVQLLESGGGLVQPGGSLRLSCAASGFTFSVYEMNWVRQAPGKGLEWVSSIYSSGGRTDYADSVKGRFTISRDNSKNTLYLQMNSLRAEDTAVYYCAREAHYYDSSGPPDYWGQGTLVTVSS
VL: QSELTQPPSASGTPGQRVTISCSGSSSNIGINFVTWYQQLPGTAPKLLIYTNNQRPSGVPDRFSSSKSGASASLAISGLQSEDEAAYYCAAWDDNLNGPVFGGGTKLTVL
modifications: Synthetically generated oligonucleotide
B7: M0036-F02: Fab that binds human MMP-14; DNA LV SEQ ID NO: 32, HV SEQ ID NO: 33 (antibody, V domains shown)
VL: QYELTQPPSLSVSPGQTASITCSGEKLGEKFASWYQRRPGQSPLLIIYQDNKRPSGIPERFSGSNSGNTAALTITGTQAMDDADYYCQAWESTTAVFGGGTKLTVL
VH: EVQLLESGGGLVQPGGSLRLSCAASGFTFSRYTMGWVRQAPGKGLEWVSRIYSSGGNTVYADSVKGRFTISRDNSKNTLYLQMNSLRAEDTATYYCARTRRDGYNPFDYWGQGTLVTVSS
modifications: Synthetically generated oligonucleotide
B8: M0035-F02: Fab that binds human MMP-14; DNA LV SEQ ID NO: 28, HV SEQ ID NO: 29 (antibody, V domains shown)
VH: EVQLLESGGGLVQPGGSLRLSCAASGFTFSFYRMEWVRQAPGKGLEWVSSIVPSGGFTRYADSVKGRFTISRDNSKNTLYLQMNSLRAEDTAVYYCARFHVLRYFDWFGNTQDTDAFDIWGQGTLVTVSS
VL: QDIQMTQSPATLSLSPGERATLSCRASQSVSNYLAWYQQKPGQAPRLLIYDASNRATGIPARFSGSGSGTDFTLTISSLEPEDFAVYYCQQRSNWPLTFGGGTKVEIK
modifications: Synthetically generated oligonucleotide
B9: M0036-D02: Fab that binds human MMP-14; DNA LV SEQ ID NO: 30, HV SEQ ID NO: 31 (antibody, V domains shown)
VL: QDIQMTQSPATLSLSPGEKATLSCRASQTVYNYLAWYQQKPGQAPRLLIYDAFNRATGIPARFSGSGSGTDFTLTISSLEPEDFAVYYCQQRGNWPRTFGQGTKVEIK
VH: EVQLLESGGGLVQPGGSLRLSCAASGFTFSFYKMTWVRQAPGKGLEWVSGIYPSGGRTVYADSVKGRFTISRDNSKNTLYLQMNSLRAEDTAMYYCARGPHYYDSPGAFDIWGQGTMVTVSS
modifications: Synthetically generated oligonucleotide
B10: M0038-D06: Fab that binds human MMP-14; DNA LV SEQ ID NO: 54, HV SEQ ID NO: 55 (antibody, V domains shown)
VL: QDIQMTQSPATLSLSPGERATLSCRASQSVSSYLAWYQQKPGQAPRLLIYDASNRATGIPARFSGSGSGTDFTLTISSLEPEDFAVYYCQQRSNWPLTFGQGTRLEIK
VH: EVQLLESGGGLVQPGGSLRLSCAASGFTFSWYYMGWVRQAPGKGLEWVSYIGSSGGMTGYADSVKGRFTISRDNSKNTLYLQMNSLRAEDTATYYCAMVGFLPTVDYWGQGTLVTVSS
modifications: Synthetically generated oligonucleotide
B11: M0037-B10: Fab that binds human MMP-14; DNA LV SEQ ID NO: 38, HV SEQ ID NO: 39 (antibody, V domains shown)
VH: EVQLLESGGGLVQPGGSLRLSCAASGFTFSVYYMGWVRQAPGKGLEWVSYIGSSGGWTEYADSVKGRFTISRDNSKNTLYLQMNSLRAEDTAVYYCARDLSAVAGLGGAFDIWGQGTMVTVSS
VL: QDIQMTQSPSSLSASVGDRVAITCRASQSIDTYLNWYQQKPGKAPKLLIYAASKLEDGVPSRFSGSGTGTDFTLTIRSLQPEDFASYFCQQSYSSPGITFGPGTKVEIK

Each molecule was assayed against MMP-14 (Homo sapiens, UniProt P50281) (assay: Selection and phage ELISA screening of anti-MMP-14 Fabs). Conditions: Fab from FAB310 phage display library.
Assay type: binding
Experimental: Strategy I: A 100-fold excess of the FAB310 library (e.g., an amount of the library that should contain 100 copies of each library member) was depleted of streptavidin-binding antibodies by incubating the library with 200 μL of streptavidin beads for 1 hour at room temperature (RT) with rotation. 500 nM of biotinylated MMP-14 was coupled to streptavidin beads by incubation with 100 μL of streptavidin beads. The MMP-14 beads were then incubated with the streptavidin-depleted library for 1 hour at RT with rotation. The beads were then rinsed three times with 2% MTRIS/0.1% Tween, transferred to a fresh tube and washed an additional three times with 2% MTRIS/0.1% Tween, and transferred to a fresh tube and washed a final time with Round 1 TRIS buffer (50 mM TRIS; 50 mM CaCl2; 150 mM NaCl, pH 7.5).
MMP-14 binding antibodies were eluted from the beads by re-suspension in 1 mL 2% MTRIS containing 2.5 μM TIMP-2 and incubation for 1 hour at RT with rotation. The beads were then washed three times with 2% MTRIS/0.1% Tween, transferred to a fresh tube and washed three times with TRIS/0.1% Tween, and transferred to a fresh tube and washed a final time with TRIS. 1 mL output was used for infection of 9 mL TG1 bacteria (grown to OD600=0.5). The beads were further eluted by suspension in 1 mL 100 mM TEA for 10 minutes. The supernatant was neutralized with 500 μl TRIS/HCl pH 7.5. 1 mL of the second elution was used for infection of 9 mL TG1 bacteria (grown to OD600=0.5).
Two additional rounds of selection were carried out under the same conditions as the first round, except that the streptavidin beads were loaded with 100 nM biotinylated MMP-14 and the number of washes were doubled (6 times with 2% MTRIS/0.1% Tween, 6 times with TRIS/0.1% Tween and 2 times with TRIS), and Round 2/3 Tris buffer (50 mM TRIS; 5 mM CaCl2; 150 mM NaCl pH=7.5) was used for incubation and wash.
TIMP-2 was coupled to carboxylic beads, then complexed with a combination of biotinylated MMP-14 (500 nM each). The complexed beads were incubated with a 100 fold excess of FAB310 library that had been previously depleted by incubation with streptavidin beads and carboxylic beads. Elution/washing was carried out as for Strategy I.
Two additional rounds of selection were carried out, essentially as described for Strategy I, except that only 100 nM of each of MMP-14 were used in the bead complexes.
384-well plates were coated with biotinylated BSA (2 μg/ml in 50 mM TRIS; 5 mM CaCl2; 150 mM NaCl, pH 7.5), then washed 3 times with 50 mM TRIS; 5 mM CaCl2; 150 mM NaCl, pH 7.5; 0.1% Tween. Streptavidin was captured on the coated plates by incubation with 10 μg/mL streptavidin in 50 mM TRIS; 5 mM CaCl2; 150 mM NaCl pH 7.5; 0.5% Gelatin, followed by a wash with 50 mM TRIS; 5 mM CaCl2; 150 mM NaCl pH=7.5; 0.1% Tween. On the day the assay was to be performed, biotinylated MMP-14 (1 μg/ml) was captured in 50 mM TRIS; 5 mM CaCl2; 150 mM NaCl, pH 7.5.
95 clones were picked from each of Round 2 and Round 3 of each selection strategy, producing 12 masterplates. ELISA was run on the MiniTrak-5 deck according to SOP.

Bind to human MMP-14, bind to human MMP-14:
B1
B2
B3
B4
B5
B6
B7
B8
B9
B10
B11
